No end group written: not given here.
target: T1, REFACTO® (factor VIII-like polypeptide, amino acids 1-743 and 1638 through 2332 of human factor VIII) (Homo sapiens, UniProt P00451); experiment: Phage ELISA of third-round isolates for binding to the factor VIII target; conditions: TN7 library phage isolates; HRP anti-M13, TMB, absorbance at OD630
T1 construct: amino acids 1-743 and 1638 through 2332 of human factor VIII; purchased Genetics Institute, Inc. (Cambridge, Mass.)
T1 sequence (P00451 20-762): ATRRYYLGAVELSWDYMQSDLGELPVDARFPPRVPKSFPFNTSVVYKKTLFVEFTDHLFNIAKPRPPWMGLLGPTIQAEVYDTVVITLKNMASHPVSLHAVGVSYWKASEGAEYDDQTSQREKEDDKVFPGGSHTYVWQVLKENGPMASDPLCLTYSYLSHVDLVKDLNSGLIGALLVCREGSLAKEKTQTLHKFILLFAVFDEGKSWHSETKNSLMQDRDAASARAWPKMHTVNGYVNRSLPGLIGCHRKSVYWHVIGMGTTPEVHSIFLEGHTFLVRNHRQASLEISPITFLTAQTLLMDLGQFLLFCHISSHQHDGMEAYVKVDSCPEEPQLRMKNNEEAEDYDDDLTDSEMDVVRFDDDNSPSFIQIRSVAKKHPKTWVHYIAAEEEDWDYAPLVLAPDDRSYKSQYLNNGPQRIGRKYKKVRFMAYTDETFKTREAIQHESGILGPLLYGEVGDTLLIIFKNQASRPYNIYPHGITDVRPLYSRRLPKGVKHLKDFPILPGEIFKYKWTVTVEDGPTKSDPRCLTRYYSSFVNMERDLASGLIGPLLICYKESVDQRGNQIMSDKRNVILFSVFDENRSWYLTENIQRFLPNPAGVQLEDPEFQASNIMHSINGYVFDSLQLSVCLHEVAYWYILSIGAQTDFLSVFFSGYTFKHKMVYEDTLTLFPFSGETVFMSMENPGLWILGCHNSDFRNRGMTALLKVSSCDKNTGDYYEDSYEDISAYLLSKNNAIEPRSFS
T1 sequence (P00451 1657-2351): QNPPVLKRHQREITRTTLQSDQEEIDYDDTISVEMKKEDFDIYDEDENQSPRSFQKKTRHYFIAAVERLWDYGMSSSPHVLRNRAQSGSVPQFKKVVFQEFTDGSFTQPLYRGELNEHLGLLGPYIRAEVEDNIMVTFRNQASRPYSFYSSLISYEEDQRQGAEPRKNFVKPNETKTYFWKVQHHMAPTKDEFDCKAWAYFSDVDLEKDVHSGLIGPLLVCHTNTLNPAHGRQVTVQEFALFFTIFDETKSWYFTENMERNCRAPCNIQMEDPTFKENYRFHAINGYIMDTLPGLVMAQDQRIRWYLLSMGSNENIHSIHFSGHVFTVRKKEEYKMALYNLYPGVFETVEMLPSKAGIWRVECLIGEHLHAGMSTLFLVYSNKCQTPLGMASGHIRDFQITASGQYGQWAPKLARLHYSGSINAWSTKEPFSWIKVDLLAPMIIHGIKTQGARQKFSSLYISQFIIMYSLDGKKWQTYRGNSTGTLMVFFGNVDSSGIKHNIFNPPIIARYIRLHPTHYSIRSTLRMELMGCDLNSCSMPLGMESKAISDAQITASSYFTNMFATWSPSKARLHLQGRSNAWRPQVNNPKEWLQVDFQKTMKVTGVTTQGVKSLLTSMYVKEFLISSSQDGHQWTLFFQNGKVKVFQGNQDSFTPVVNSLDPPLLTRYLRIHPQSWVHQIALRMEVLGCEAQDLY
Source text: The techniques described above were employed to isolate high affinity binding molecules for ligands for recombinantly produced factor VIII-like polypeptide consisting of two segments of human factor VIII, i.e., amino acids 1-743 and 1638 through 2332 of human factor VIII, as described in U.S. Pat. No. 5,661,008 (Almstedt et al.), obtained under the commercial designation of REFACTO® from Genetics Institute, Inc. (Cambridge, Mass.). The REFACTO® target was provided at a concentration of about 530 μg/ml (7800 IU/ml) in 19.4 mM His, 300 mM NaCl, 3.4 mM CaCl2 and 0.1% Tween 80, pH 7.0.
Three libraries, designated TN7 (5×10^9 amino acid sequence diversity), TN8 (6×10^9 amino acid sequence diversity), and TN9 (5×10^9 amino acid sequence diversity), were constructed for expression of diversified polypeptides on M13 phage. Each library was screened for binders to purified REFACTO®. Each of the libraries was constructed to display a microprotein based on an 11- or 12-amino acid template. The TN7 library utilized a template sequence of Xaa-Xaa-Cys-Xaa-Xaa-Xaa-Xaa-Xaa-Cys-Xaa-Xaa; the TN8 library utilized a template sequence of Xaa-Xaa-Cys-Xaa-Xaa-Xaa-Xaa-Xaa-Xaa-Cys-Xaa-Xaa; the TN9 library utilized a template sequence of Xaa-Cys-Xaa-Xaa-Xaa-Xaa-Xaa-Xaa-Xaa-Cys-Xaa.
(§1) Three rounds of screenings were carried out for each library. At the conclusion of the third round of screening eluted phage were propagated, and individual isolates from each library (96 per elution condition) were selected randomly and tested by standard ELISA techniques for binding to the factor VIII target. Bound phage were detected with HRP conjugated anti-M13 polyclonal antibody (Pharmacia). TMB Peroxidase substrate was used for HRP in the ELISA detection mechanism. TMB substrate produces a blue color after peroxidase digestion. The color is quantitated by absorbance at OD630. Phage isolates that provided a significant signal (OD630>0.25) above background were considered positive clones.
Sequence data from the phage isolates were grouped by library and sorted according to the degree of similarity. The frequency at which any given sequence was obtained was noted since this indicates selection for a specific binder.

Row | Substance | ELISA signal
1 | D04 (RLCSWISPCSA; Selected Phage Display Sequence) | 0.3
2 | D03 (PHCNWLFPCSL; Selected Phage Display Sequence) | 0.2
3 | C5/G10 (RLCSWVSPCSA; Selected Phage Display Sequence) | 0.5
4 | A06 (HSCGSWLFPCFA; Selected Phage Display Sequence) | 0.5
5 | A08 (FGCSWLFPCPF; Selected Phage Display Sequence) | 0.4
6 | A09 (FHCIGVWFCLH; Selected Phage Display Sequence) | 0.1

same assay, conditions: TN8 library phage isolates; HRP anti-M13, TMB, absorbance at OD630

Row | Substance | ELISA signal
7 | 05 (RGCGSWLRPCLD; Selected Phage Display Sequence) [compound 05] | 0.2
8 | 11/G10 (HRCGSWLHPCLA; Selected Phage Display Sequence) | 0.3
9 | 07 (HACGSWFRPCHA; Selected Phage Display Sequence) [compound 07] | 0.4
10 | 08 (HPCGAWLRPCYN; Selected Phage Display Sequence) [compound 08] | 1.0

same assay, conditions: TN9 library phage isolates; HRP anti-M13, TMB, absorbance at OD630

Row | Substance | ELISA signal
11 | 06 (FCWVFPFHHCF; Selected Phage Display Sequence) [compound 06] | 0.3
12 | 11 (FCHVFPFLHCD; Selected Phage Display Sequence) [compound 11] | 0.2
13 | 03 (FCWVFNFSHCS; Selected Phage Display Sequence) [compound 03] | 1.1
14 | 09 (FCWVFPFQHCA; Selected Phage Display Sequence) [compound 09] | 1.1

target: T2, factor VIII target (Homo sapiens, UniProt P00451); experiment: Phage ELISA of high scoring isolates from rounds 2 and 3, with versus without target; type: binding; conditions: phage isolates from rounds 2 and 3
T2 construct: amino acids 1-743 and 1638 through 2332 of human factor VIII; purchased Genetics Institute, Inc. (Cambridge, Mass.)
T2 sequence (P00451 20-762): T1 sequence (P00451 20-762)
T2 sequence (P00451 1657-2351): T1 sequence (P00451 1657-2351)
Description: During analysis of the specific polypeptides of the invention, three libraries were isolated and screened. […] These libraries were designated TN7/1, TN8/6 anf TN9/1. In addition, important consensus sequences were determined.
as §1, with “clones. […]” for “clones.”

Row | Substance | R, ratio of the ELISA score with target present to the ELISA score without target
15 | HSCGSWLFPCFA (cysteine pairing not given here) [TN7 isolate A06] | 10
16 | HLCFAWFRPCDA (cysteine pairing not given here) [TN8 isolate 12] | 8
17 | RLCSWVSPCSA (cysteine pairing not given here) [TN7 isolate C5/G10] | 10
18 | HLCGAWFRPCDA (cysteine pairing not given here) [TN8 isolate 02] | 6
19 | HPCGSWFRPCFH (cysteine pairing not given here) [TN8 isolate 02] | 16
20 | FCWVFNFSHCS (cysteine pairing not given here) [TN9 isolate 03] | 24
21 | HPCGSWLRPCLH (cysteine pairing not given here) [TN8 isolate 10] | 16
22 | FCWVFNWVHCD (Selected Phage Display Sequence) [Phe-Cys-Trp-Val-Phe-Asn-Trp-Val-His-Cys-Asp] | 14
23 | FGCSWLFPCPF (cysteine pairing not given here) [TN7 isolate A08] | 8
24 | FCWVFPFNHCD (cysteine pairing not given here) [TN9 isolate 02] | 8
25 | HPCGAWLRPCYN (cysteine pairing not given here) [TN8 isolate 08] | 20
26 | HPCGSWLHPCAA (cysteine pairing not given here) [TN8 isolate 04] | 6
27 | RLCSWISPCSA (cysteine pairing not given here) [TN7 isolate D04] | 6
28 | FCWVFPFNHCS (cysteine pairing not given here) [TN9 isolate 12] | 18
29 | FCWVFQFRHCH (Selected Phage Display Sequence) [Phe-Cys-Trp-Val-Phe-Q-Phe-Arg-His-Cys-His] | 8
30 | FCWVFPFHHCF (cysteine pairing not given here) [TN9 isolate 06] | 6
31 | FCWVFAFDHCH (Selected Phage Display Sequence) [Phe-Cys-Trp-Val-Phe-Ala-Phe-Asp-His-Cys-His] | 24
32 | FCWVFPFQHCA (cysteine pairing not given here) [TN9 isolate 09] | 24
33 | HPCGSWFNPCAH (cysteine pairing not given here) [TN8 isolate 02] | 8
34 | FCHVFNFVHCS (cysteine pairing not given here) [TN9 isolate 01] | 8
35 | HRCGSWLHPCLA (cysteine pairing not given here) [TN8 isolate 11/G10] | 6
36 | HACGSWFRPCHA (cysteine pairing not given here) [TN8 isolate 07] | 6
